Measurements taken from article doi:10.1101/2024.10.14.618152.

Molecular target: Zt-KP4-1 (Zt-NIP1) (Zymoseptoria tritici)
Assay: SEC

Q: How did the stoichiometry N turn out when Zt-KP4-1 (Zt-NIP1) (natural protein) was run?
A: 2
